Measured values as given in paper PMC12785664, “Structure-Functional Examination of Cysteine Synthase A (CysK) from Limosilactobacillus reuteri LR1” (International Journal of Molecular Sciences, 2025).
Values belong to the molecule of their own block, whether it stands above or below them.

Legend:
[1] = biological target: T1, LreCysK (cysteine synthase A from Limosilactobacillus reuteri LR1, His-tag at N-terminus) (Limosilactobacillus reuteri, UniProt A0ABF7PP24); assay: differential scanning calorimetry, with versus without added PLP; format: binding; settings: 1.0 mM PLP, 0.1 M Na-phosphate pH 7.0, 1 °C/min; two calorimetric domains, domain 1 given
T1 construct: gene cysK
T1 sequence (A0ABF7PP24 2-307): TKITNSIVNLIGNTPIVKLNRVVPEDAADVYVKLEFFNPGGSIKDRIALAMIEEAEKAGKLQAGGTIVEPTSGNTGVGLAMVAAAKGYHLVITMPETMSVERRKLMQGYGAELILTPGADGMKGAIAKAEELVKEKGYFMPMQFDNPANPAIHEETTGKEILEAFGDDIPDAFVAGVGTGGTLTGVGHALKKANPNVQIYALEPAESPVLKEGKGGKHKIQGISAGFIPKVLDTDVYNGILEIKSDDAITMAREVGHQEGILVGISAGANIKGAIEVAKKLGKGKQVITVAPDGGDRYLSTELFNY
Source text: differential scanning calorimetry, with versus without added PLP on LreCysK (cysteine synthase A from Limosilactobacillus reuteri LR1, His-tag at N-terminus)

[2] = biological target: Cysteine synthase A (CysK) from Limosilactobacillus reuteri LR1 with His-tag on the N-terminus (Limosilactobacillus reuteri LR1); assay: SEC; analytical gel filtration, HiLoad 16/600 Superdex 200 pg, 1 mg of sample, calibrated with Gel Filtration Calibration Kit HMW; monomer to dimer
[3] = system: CC(=O)OC[C@H](N)C(=O)O; assay: purified protein; settings: saturating sulfide, 5 µM PLP, 10 mM HEPES pH 7.5
Source text: HILIC HPLC determination of cysteine, nonlinear regression on LreCysK (cysteine synthase A from Limosilactobacillus reuteri LR1, His-tag at N-terminus)

Molecule: Cc1ncc(COP(=O)(O)O)c(C=O)c1O [Pyridoxal-5 phosphate]
- Tm, °C [1]: 80.1 °C

- stoichiometry N [2]: 2
Molecule: Cysteine synthase A (CysK) from Limosilactobacillus reuteri LR1 with His-tag on the N-terminus (enzyme)

Molecule: LreCysK (cysteine synthase A from Limosilactobacillus reuteri LR1, His-tag at N-terminus) (Limosilactobacillus reuteri)
- Km [3]: 3.8 ± 0.6 mM
- kcat [3]: 681 ± 45 s⁻¹
- kcat/Km [3]: 179000 M⁻¹ s⁻¹
